Assays:
Details in all cases: modification not given
[1] = molecular target: ACE2 (Homo sapiens), Q9BYF1; experiment: SPR
[2] = molecular target: ACE2 (Homo sapiens), Q9BYF1; experiment: SPR; remark: listed apart in the source
[3] = molecular target: ACE2 (Homo sapiens), Q9BYF1; experiment: SPR; remark: listed apart in the source
[4] = molecular target: ACE2 (Homo sapiens), Q9BYF1; experiment: NMR
[5] = molecular target: ACE2 (Homo sapiens), Q9BYF1; experiment: SPR; remark: listed apart in the source

ACE2 (Homo sapiens), Q9BYF1, sequence (Q9BYF1 18-740): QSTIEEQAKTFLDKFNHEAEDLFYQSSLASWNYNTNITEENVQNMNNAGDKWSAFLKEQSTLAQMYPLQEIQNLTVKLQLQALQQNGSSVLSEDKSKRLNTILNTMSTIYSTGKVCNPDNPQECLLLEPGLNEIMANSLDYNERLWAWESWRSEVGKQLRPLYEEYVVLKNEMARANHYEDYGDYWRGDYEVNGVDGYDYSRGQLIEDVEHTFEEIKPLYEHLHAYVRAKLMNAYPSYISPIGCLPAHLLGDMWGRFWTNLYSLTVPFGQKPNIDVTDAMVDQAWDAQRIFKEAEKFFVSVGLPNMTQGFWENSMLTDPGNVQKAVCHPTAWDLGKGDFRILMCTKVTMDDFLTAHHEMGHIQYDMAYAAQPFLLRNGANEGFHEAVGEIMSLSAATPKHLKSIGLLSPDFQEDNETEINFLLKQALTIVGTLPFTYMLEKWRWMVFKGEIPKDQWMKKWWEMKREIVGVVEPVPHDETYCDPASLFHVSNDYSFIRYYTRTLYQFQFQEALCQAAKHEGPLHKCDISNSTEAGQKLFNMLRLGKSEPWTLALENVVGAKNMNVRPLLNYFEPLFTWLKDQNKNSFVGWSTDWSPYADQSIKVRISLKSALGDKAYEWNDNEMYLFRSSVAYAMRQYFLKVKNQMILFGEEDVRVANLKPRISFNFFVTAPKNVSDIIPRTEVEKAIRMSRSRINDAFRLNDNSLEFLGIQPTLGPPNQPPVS

Row | Binder | Kd [1] [µM] | Kd [2] [µM] | Kd [3] [µM] | Kd [4] [µM] | Kd [5] [µM]
1 | CYWPLNDYGFYT [RBD-14 peptide, P59594] | 450 | 430 | – | – | –
2 | YKYRYLRHGKLR [RBD-11 peptide, P59594] | – | 67 | 85 | – | –
3 | YKYRYL [RBD-11b peptide] | – | 46 | – | 60 | –
4 | TTGIGYQPYRVV [RBD-15 peptide, P59594] | – | 450 | – | – | 672

Source: article PMC7114193
